What was measured:
Experiment in all cases: IP/MS, LZTR1 R810W-FLAG, U87
[1] = target: ARHGEF28 (human, UniProt Q8N1W1 1-1705, limits assumed)
How it was run: (§1)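 Gel slices were reduced with 5 mM DTT, alkylated with 11 mM IAA and digested overnight at 37° C. with trypsin. Peptides were analysed on an Orbitrap Fusion Tribrid by LC-MS/MS.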

[2] = target: ARHGEF40 (human, UniProt Q8TER5 1-1519, limits assumed)
How it was run: as §1

[3] = target: HERC2 (human, UniProt O95714 1-4834)
How it was run: as §1

[4] = target: SPG11 (human, UniProt Q96JI7 1-2443, limits assumed)
SPG11, sequence (Q96JI7 whole entry): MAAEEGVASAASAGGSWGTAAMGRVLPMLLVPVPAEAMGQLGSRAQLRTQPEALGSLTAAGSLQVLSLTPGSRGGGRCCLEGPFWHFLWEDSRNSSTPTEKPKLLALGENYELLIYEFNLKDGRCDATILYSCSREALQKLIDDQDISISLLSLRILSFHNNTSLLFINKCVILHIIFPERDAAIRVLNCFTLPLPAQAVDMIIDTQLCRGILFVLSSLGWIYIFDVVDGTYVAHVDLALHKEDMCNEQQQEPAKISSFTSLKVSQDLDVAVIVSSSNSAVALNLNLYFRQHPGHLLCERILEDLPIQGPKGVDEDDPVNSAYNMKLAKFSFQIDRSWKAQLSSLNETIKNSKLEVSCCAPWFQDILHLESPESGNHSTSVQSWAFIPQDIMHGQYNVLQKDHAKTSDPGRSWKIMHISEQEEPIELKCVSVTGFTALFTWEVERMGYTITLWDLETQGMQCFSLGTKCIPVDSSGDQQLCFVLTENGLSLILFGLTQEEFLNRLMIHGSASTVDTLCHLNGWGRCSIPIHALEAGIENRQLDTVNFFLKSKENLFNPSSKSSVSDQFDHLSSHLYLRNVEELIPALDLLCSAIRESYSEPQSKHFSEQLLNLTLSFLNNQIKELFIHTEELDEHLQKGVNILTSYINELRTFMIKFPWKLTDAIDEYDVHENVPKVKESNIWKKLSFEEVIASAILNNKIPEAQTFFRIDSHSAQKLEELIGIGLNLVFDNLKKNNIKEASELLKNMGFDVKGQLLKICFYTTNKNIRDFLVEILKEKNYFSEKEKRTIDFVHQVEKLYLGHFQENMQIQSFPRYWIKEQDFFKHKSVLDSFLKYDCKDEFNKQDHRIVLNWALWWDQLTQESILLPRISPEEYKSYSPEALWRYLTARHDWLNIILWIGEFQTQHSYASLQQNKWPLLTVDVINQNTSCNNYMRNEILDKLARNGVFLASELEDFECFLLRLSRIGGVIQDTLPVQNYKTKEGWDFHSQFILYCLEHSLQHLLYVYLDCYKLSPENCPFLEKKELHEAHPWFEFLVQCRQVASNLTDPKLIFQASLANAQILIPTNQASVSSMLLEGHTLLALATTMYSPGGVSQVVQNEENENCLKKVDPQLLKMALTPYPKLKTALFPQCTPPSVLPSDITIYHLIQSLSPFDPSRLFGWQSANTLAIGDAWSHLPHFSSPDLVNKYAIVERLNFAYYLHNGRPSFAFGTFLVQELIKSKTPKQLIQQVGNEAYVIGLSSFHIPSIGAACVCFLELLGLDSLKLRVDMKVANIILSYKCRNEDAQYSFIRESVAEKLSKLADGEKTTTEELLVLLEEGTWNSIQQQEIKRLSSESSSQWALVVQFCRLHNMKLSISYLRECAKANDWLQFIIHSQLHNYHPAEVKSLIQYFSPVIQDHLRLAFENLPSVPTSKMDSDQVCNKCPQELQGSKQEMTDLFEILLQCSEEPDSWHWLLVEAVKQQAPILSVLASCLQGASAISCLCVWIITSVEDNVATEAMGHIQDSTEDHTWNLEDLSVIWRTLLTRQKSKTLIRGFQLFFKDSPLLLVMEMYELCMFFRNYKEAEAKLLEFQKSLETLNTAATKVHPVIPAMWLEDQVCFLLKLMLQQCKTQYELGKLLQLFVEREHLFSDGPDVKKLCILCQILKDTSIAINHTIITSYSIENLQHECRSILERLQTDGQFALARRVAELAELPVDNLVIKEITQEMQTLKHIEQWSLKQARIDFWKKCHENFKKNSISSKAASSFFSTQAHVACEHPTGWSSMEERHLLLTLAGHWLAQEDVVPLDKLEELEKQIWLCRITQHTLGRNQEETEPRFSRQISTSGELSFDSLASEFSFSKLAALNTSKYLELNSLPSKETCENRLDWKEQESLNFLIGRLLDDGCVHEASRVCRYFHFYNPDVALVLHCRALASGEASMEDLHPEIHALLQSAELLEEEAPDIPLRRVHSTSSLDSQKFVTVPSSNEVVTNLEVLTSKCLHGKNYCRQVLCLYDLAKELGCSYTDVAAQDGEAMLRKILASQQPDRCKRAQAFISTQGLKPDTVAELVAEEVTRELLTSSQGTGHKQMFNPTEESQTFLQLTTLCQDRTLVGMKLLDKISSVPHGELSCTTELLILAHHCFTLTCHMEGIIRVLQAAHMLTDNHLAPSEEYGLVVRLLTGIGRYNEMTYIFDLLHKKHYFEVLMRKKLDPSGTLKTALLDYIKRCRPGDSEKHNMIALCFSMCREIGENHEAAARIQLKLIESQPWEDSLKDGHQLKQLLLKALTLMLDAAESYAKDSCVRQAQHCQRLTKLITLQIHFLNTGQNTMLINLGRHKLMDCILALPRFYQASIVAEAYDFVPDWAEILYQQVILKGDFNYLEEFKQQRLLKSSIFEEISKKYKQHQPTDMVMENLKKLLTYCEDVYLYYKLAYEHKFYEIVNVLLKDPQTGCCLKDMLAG
How it was run: as §1

[5] = target: TTI1 (human, UniProt O43156 1-1089)
How it was run: as §1

[6] = target: TTC27 (human, UniProt Q6P3X3 1-843)
How it was run: as §1

[7] = target: T1, SLC4A2 (human, UniProt P04920 1-1241, limits assumed)
T1 sequence (looked up): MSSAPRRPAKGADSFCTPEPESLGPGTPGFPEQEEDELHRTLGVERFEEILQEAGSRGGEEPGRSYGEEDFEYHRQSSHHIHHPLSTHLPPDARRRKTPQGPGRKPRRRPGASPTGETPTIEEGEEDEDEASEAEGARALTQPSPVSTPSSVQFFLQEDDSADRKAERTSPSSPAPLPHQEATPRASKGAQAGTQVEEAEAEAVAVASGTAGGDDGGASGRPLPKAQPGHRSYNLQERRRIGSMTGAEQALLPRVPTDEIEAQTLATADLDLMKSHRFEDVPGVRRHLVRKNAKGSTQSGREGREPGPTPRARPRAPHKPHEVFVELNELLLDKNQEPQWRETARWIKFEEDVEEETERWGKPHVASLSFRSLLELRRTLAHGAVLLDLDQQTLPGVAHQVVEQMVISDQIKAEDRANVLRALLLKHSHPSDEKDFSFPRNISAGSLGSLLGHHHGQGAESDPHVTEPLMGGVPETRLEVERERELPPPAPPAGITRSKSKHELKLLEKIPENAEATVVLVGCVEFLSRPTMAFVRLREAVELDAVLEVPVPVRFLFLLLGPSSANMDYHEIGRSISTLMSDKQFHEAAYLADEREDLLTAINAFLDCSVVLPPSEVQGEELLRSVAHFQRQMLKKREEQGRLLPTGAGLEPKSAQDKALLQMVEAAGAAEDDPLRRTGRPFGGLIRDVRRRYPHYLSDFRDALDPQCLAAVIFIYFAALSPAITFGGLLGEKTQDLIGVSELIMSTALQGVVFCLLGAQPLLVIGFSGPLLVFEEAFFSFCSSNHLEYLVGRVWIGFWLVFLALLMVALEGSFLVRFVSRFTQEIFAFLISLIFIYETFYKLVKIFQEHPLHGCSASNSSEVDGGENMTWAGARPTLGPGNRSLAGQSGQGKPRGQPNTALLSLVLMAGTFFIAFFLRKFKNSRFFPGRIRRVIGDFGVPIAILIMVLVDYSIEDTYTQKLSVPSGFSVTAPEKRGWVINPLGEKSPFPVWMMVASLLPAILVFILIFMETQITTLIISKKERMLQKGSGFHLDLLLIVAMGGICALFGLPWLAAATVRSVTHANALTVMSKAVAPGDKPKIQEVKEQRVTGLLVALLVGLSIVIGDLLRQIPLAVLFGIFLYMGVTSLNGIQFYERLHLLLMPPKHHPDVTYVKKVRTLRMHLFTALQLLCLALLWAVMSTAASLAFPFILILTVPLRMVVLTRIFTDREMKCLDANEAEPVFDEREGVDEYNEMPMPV
How it was run: as §1

Measured: binding result

ARHGEF28, sequence (Q8N1W1 whole entry, the tested form may be a part): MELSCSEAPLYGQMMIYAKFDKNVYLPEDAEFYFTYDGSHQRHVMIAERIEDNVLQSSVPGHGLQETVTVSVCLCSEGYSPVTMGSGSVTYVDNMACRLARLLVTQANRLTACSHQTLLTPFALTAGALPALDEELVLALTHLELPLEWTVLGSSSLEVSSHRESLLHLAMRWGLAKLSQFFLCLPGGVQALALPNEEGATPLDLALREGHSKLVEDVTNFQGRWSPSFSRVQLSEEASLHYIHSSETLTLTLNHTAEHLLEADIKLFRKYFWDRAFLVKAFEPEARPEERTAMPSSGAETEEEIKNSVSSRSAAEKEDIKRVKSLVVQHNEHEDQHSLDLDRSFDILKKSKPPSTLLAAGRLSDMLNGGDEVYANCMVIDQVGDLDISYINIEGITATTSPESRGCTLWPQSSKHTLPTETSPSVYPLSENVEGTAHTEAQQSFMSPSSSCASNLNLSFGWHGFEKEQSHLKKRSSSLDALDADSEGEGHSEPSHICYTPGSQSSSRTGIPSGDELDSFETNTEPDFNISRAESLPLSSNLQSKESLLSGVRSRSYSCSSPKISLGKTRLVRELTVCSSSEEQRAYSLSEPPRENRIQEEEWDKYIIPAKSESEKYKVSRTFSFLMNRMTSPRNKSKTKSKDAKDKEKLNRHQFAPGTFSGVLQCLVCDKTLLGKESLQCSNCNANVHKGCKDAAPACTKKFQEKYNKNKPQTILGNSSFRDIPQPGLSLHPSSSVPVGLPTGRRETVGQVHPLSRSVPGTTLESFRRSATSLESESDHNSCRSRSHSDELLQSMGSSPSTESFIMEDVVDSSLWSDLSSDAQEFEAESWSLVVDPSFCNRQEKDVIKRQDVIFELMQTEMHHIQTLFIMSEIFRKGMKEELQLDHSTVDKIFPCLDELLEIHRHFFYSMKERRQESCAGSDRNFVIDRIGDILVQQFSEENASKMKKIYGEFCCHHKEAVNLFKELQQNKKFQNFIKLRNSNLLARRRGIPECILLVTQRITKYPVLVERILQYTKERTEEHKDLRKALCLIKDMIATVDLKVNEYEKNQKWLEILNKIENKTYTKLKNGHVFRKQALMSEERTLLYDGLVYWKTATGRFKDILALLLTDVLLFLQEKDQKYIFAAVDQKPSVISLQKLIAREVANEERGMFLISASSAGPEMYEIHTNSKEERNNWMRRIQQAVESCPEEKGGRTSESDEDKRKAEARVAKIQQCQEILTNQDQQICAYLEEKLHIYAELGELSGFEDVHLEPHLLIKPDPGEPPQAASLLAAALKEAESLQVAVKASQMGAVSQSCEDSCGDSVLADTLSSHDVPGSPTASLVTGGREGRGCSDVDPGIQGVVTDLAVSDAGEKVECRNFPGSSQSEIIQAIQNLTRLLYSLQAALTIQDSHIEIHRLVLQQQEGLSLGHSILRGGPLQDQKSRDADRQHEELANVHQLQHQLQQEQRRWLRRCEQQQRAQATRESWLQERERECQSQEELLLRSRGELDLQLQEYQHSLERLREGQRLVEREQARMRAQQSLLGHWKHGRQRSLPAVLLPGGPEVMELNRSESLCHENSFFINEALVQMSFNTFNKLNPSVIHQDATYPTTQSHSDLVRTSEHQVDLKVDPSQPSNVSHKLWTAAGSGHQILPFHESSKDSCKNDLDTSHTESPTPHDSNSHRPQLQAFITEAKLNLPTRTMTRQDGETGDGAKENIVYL

B1: LZTR1 R810W-FLAG (other, human, UniProt Q8N653 1-840, looked up)
chain: MAGPGSTGGQIGAAALAGGARSKVAPSVDFDHSCSDSVEYLTLNFGPFETVHRWRRLPPCDEFVGARRSKHTVVAYKDAIYVFGGDNGKTMLNDLLRFDVKDCSWCRAFTTGTPPAPRYHHSAVVYGSSMFVFGGYTGDIYSNSNLKNKNDLFEYKFATGQWTEWKIEGRLPVARSAHGATVYSDKLWIFAGYDGNARLNDMWTIGLQDRELTCWEEVAQSGEIPPSCCNFPVAVCRDKMFVFSGQSGAKITNNLFQFEFKDKTWTRIPTEHLLRGSPPPPQRRYGHTMVAFDRHLYVFGGAADNTLPNELHCYDVDFQTWEVVQPSSDSEVGGAEVPERACASEEVPTLTYEERVGFKKSRDVFGLDFGTTSAKQPTQPASELPSGRLFHAAAVISDAMYIFGGTVDNNIRSGEMYRFQFSCYPKCTLHEDYGRLWESRQFCDVEFVLGEKEECVQGHVAIVTARSRWLRRKITQARERLAQKLEQEAAPVPREAPGVAAGGARPPLLHVAIREAEARPFEVLMQFLYTDKIKYPRKGHVEDVLLIMDVYKLALSFQLCRLEQLCRQYIEASVDLQNVLVVCESAARLQLSQLKEHCLNFVVKESHFNQVIMMKEFERLSSPLIVEIVRRKQQPPPRTPLDQPVDIGTSLIQDMKAYLEGAGAEFCDITLLLDGHPRPAHKAILAARSSYFEAMFRSFMPEDGQVNISIGEMVPSRQAFESMLRYIYYGEVNMPPEDSLYLFAAPYYYGFYNNRLQAYCKQNLEMNVTVQNVLQILEAADKTQALDMKRHCLHIIVHQFTKVSKLPTLWSLSQQLLLDIIDSLASHISDKQCAELGADI
notes: Stably expressed in U87 cells by lentivirus; also called LZTR1-FLAG-R810W; LZTR1 RW; not shown: FLAG tag
binds: all assays above

From patent publication US20250262210A1 (TRUSTEES OF COLUMBIA UNIVERSITY IN THE CITY OF NEW YORK, published 2025)
